Assay results taken from article PMC4841080.

Assays:
Details in all cases: glycan lost; control: wild type
[1] = Western blot of cell lysates
[2] = Western blot of Ni-NTA-concentrated conditioned medium
[3] = Immunofluorescence co-staining with Golgi marker GRASP65

B1: R-spondin1 (RSPO1): N137Q (protein)
parent chain: MRLGLCVVALVLSWTHLTISSRGIKGKRQRRISAEGSQACAKGCELCSEVNGCLKCSPKLFILLERNDIRQVGVCLPSCPPGYFDARNPDMNKCIKCKIEHCEACFSHNFCTKCKEGLYLHKGRCYPACPEGSSAANGTMECSSPAQCEMSEWSPWGPCSKKQQLCGFRRGSEERTRRVLHAPVGDHAACSDTKETRRCTVRRVPCPEGQKRRKGGQGRRENANRNLARKESKEAGAGSRRRKGQQQQQQQGTVGPLTSAGPA
expression_or_secretion [1]: increases
expression_or_secretion [2]: increases
localisation_or_trafficking [3]: no change
